Results taken from PMC4526461 (The Biochemical journal, 2015).
Several values for one entry are separate records, joined by “and”; a condition that tells them apart may be missing. Equal entries are not always repeated.

B1: recombinant mouse neutral sphingomyelinase-2 with C-terminal FLAG and 6xHis tags (pET-32a-nSMase-2-FLAG-6xHis), expressed in Rosetta2 (DE3) pLysS (enzyme, UniProt Q9JJY3 1-655, looked up)
chain: MVLYTTPFPNSCLSALHAVSWALIFPCYWLVDRLLASFIPTTYEKRQRADDPCCLQLFCTVLFTPVYLALLVAALPFAFLGFIFWSPLQSARRPYSYSRLEDKNPAGGAALLSEWKGTGAGKSFCFATANVCLLPDSLARLNNVFNTQARAKEIGQRIRNGAARPQIKIYIDSPTNTSISAASFSSLVSPQGGDGSRAVPGSIKRTASVEYKGDGGRHPSDEAANGPASGEQADGSLEDSCIVRIGGEEGGRPQEADDPAAGSQARNGAGGTPKGQTPNHNQRDGDSGSLGSPSASRESLVKARAGQDSGGSGEPGANSKLLYKTSVVKKAAARRRRHPDEAFDHEVSAFFPANLDFLCLQEVFDKRAAAKLKEQLHGYFEYILYDVGVYGCHGCCNFKCLNSGLFFASRYPVMDVAYHCYPNGCSFDALASKGALFLKVQVGSTPQDQRIVGYIACTHLHAPPEDSAVRCEQLDLLQDWLADFRKSTSSTSTANPEELVVFDVICGDLNFDNCSSDDKLEQQHSLFTRYKDPCRLGPGEEKPWAIGTLLDTNGLYDEDVCTPDNLQKVLESEEGRREYLAFPTSKSPGAGQKGRKDLLKGNGRRIDYMLHAEEGLCPDWKAEVEEFSFITQLSGLTDHLPVAMRLMVSAGEEEA
B2: nSMase-2 single-point mutant Cys617Ser (enzyme, mouse, UniProt Q9JJY3 1-655, looked up)
chain: MVLYTTPFPNSCLSALHAVSWALIFPCYWLVDRLLASFIPTTYEKRQRADDPCCLQLFCTVLFTPVYLALLVAALPFAFLGFIFWSPLQSARRPYSYSRLEDKNPAGGAALLSEWKGTGAGKSFCFATANVCLLPDSLARLNNVFNTQARAKEIGQRIRNGAARPQIKIYIDSPTNTSISAASFSSLVSPQGGDGSRAVPGSIKRTASVEYKGDGGRHPSDEAANGPASGEQADGSLEDSCIVRIGGEEGGRPQEADDPAAGSQARNGAGGTPKGQTPNHNQRDGDSGSLGSPSASRESLVKARAGQDSGGSGEPGANSKLLYKTSVVKKAAARRRRHPDEAFDHEVSAFFPANLDFLCLQEVFDKRAAAKLKEQLHGYFEYILYDVGVYGCHGCCNFKCLNSGLFFASRYPVMDVAYHCYPNGCSFDALASKGALFLKVQVGSTPQDQRIVGYIACTHLHAPPEDSAVRCEQLDLLQDWLADFRKSTSSTSTANPEELVVFDVICGDLNFDNCSSDDKLEQQHSLFTRYKDPCRLGPGEEKPWAIGTLLDTNGLYDEDVCTPDNLQKVLESEEGRREYLAFPTSKSPGAGQKGRKDLLKGNGRRIDYMLHAEEGLSPDWKAEVEEFSFITQLSGLTDHLPVAMRLMVSAGEEEA
B3: nSMase-2 single-point mutant Cys561Ser (enzyme, mouse, UniProt Q9JJY3 1-655, looked up)
chain: MVLYTTPFPNSCLSALHAVSWALIFPCYWLVDRLLASFIPTTYEKRQRADDPCCLQLFCTVLFTPVYLALLVAALPFAFLGFIFWSPLQSARRPYSYSRLEDKNPAGGAALLSEWKGTGAGKSFCFATANVCLLPDSLARLNNVFNTQARAKEIGQRIRNGAARPQIKIYIDSPTNTSISAASFSSLVSPQGGDGSRAVPGSIKRTASVEYKGDGGRHPSDEAANGPASGEQADGSLEDSCIVRIGGEEGGRPQEADDPAAGSQARNGAGGTPKGQTPNHNQRDGDSGSLGSPSASRESLVKARAGQDSGGSGEPGANSKLLYKTSVVKKAAARRRRHPDEAFDHEVSAFFPANLDFLCLQEVFDKRAAAKLKEQLHGYFEYILYDVGVYGCHGCCNFKCLNSGLFFASRYPVMDVAYHCYPNGCSFDALASKGALFLKVQVGSTPQDQRIVGYIACTHLHAPPEDSAVRCEQLDLLQDWLADFRKSTSSTSTANPEELVVFDVICGDLNFDNCSSDDKLEQQHSLFTRYKDPCRLGPGEEKPWAIGTLLDTNGLYDEDVSTPDNLQKVLESEEGRREYLAFPTSKSPGAGQKGRKDLLKGNGRRIDYMLHAEEGLCPDWKAEVEEFSFITQLSGLTDHLPVAMRLMVSAGEEEA

Molecular target: the molecule itself
Assay: non-reducing SDS/PAGE and Western blot

| Protein | stoichiometry N | decrease in multimer to monomer ratio against wild-type |
| --- | --- | --- |
| B1 | 2 and 3 | – |
| B2 | – | ~50% |
| B3 | – | ~50% |
